The results in this text go back to patent publication US20090291088A1 (Biogen, published 2009).

In assay [1] the target is T1, hIGF-1R-Fc mutant SD102 (E459A, S460A) (human, UniProt P08069 31-933).
T1 construct: not shown: C-terminal human IgG1-Fc tag
Put plainly: SPR, Fab over captured mutant. In general terms: In SPR one partner is held on a chip, and binding of the other changes the refractive index at the surface.

The target of assay [2] is T2, hIGF-1R-Fc mutant SD103 (D461A, V462T) (human, UniProt P08069 31-933).
T2 construct: not shown: C-terminal human IgG1-Fc tag
Put plainly: SPR, Fab over captured mutant.

The target in assay [3] is T3, hIGF-1R-Fc mutant SD104 (H464A) (human, UniProt P08069 31-933).
T3 construct: not shown: C-terminal human IgG1-Fc tag
Put plainly: SPR, Fab over captured mutant.

For assay [4], the target named is T4, hIGF-1R-Fc mutant SD108 (H480E) (human, UniProt P08069 31-933).
T4 construct: not shown: C-terminal human IgG1-Fc tag
The assay is described as follows: SPR, Fab over captured mutant.

Assay [5] concerns the target T5, hIGF-1R-Fc mutant SD109 (Y482A, R483W) (human, UniProt P08069 31-933).
T5 construct: not shown: C-terminal human IgG1-Fc tag
Put plainly: SPR, Fab over captured mutant.

Assay [6] deals with T6, hIGF-1R-Fc mutant SD113 (E570A, I571T) (human, UniProt P08069 31-933).
T6 construct: not shown: C-terminal human IgG1-Fc tag
Put plainly: SPR, Fab over captured mutant.

The target of assay [7] is T7, hIGF-1R-Fc mutant SD001 (Y28A) (human, UniProt P08069 31-933).
T7 construct: not shown: C-terminal human IgG1-Fc tag
The assay is described as follows: SPR, M13-C06 Fab over captured mutant. How it is done:
(§1) After, completion of the receptor-Fc loading step, flow rates were elevated to 5 μl/min. […] At the end of each sensorgram, the flow rate was elevated to 30 μl/min and the chip surface was regenerated by 2×10 μL injections of 0.1 M glycine, pH 2.

Assay [8] has as its target T8, hIGF-1R-Fc mutant SD002 (M156A) (human, UniProt P08069 31-933).
T8 construct: not shown: C-terminal human IgG1-Fc tag
The assay is described as follows: SPR, M13-C06 Fab over captured mutant. As for the experimental part: as §1

Assay [9] concerns the target T9, hIGF-1R-Fc mutant SD003 (T188F) (human, UniProt P08069 31-933).
T9 construct: not shown: C-terminal human IgG1-Fc tag
The assay is described as follows: SPR, M13-C06 Fab over captured mutant. As for the experimental part:
as §1

Assay [10] addresses T10, hIGF-1R-Fc mutant SD004 (S210H_A211Q) (human, UniProt P08069 31-933).
T10 construct: not shown: C-terminal human IgG1-Fc tag
The assay is described as follows: SPR, M13-C06 Fab over captured mutant. As for the experimental part: as §1

Assay [11] deals with T11, hIGF-1R-Fc mutant SD005 (A217T) (human, UniProt P08069 31-933).
T11 construct: not shown: C-terminal human IgG1-Fc tag
The assay is described as follows: SPR, M13-C06 Fab over captured mutant. How it is done: as §1

The target in assay [12] is T12, hIGF-1R-Fc mutant SD006 (A227K) (human, UniProt P08069 31-933).
T12 construct: also called SD0006; not shown: C-terminal human IgG1-Fc tag
Put plainly: SPR, M13-C06 Fab over captured mutant. How it is done:
as §1

Assay [13] addresses T13, hIGF-1R-Fc mutant SD007 (N237G) (human, UniProt P08069 31-933).
T13 construct: not shown: C-terminal human IgG1-Fc tag
The assay is described as follows: SPR, M13-C06 Fab over captured mutant. As for the experimental part: as §1

Assay [14] deals with T14, hIGF-1R-Fc mutant SD010 (G271D) (human, UniProt P08069 31-933).
T14 construct: not shown: C-terminal human IgG1-Fc tag
The assay is described as follows: SPR, M13-C06 Fab over captured mutant. As for the experimental part:
as §1

Assay [15] concerns the target T15, hIGF-1R-Fc mutant SD011 (G285S_S286T) (human, UniProt P08069 31-933).
T15 construct: not shown: C-terminal human IgG1-Fc tag
Put plainly: SPR, M13-C06 Fab over captured mutant. As for the experimental part:
as §1

Assay [16] addresses T16, hIGF-1R-Fc mutant SD012 (E303G) (human, UniProt P08069 31-933).
T16 construct: not shown: C-terminal human IgG1-Fc tag
Put plainly: SPR, M13-C06 Fab over captured mutant. As for the experimental part:
as §1

Assay [17] has as its target T17, hIGF-1R-Fc mutant SD013 (D405K) (human, UniProt P08069 31-933).
T17 construct: not shown: C-terminal human IgG1-Fc tag
Put plainly: SPR, M13-C06 Fab over captured mutant. How it is done:
as §1

The target of assay [18] is T18, hIGF-1R-Fc mutant SD014 (K412A_A413Q) (human, UniProt P08069 31-933).
T18 construct: not shown: C-terminal human IgG1-Fc tag
The assay is described as follows: SPR, M13-C06 Fab over captured mutant. As for the experimental part: as §1

Assay [19] concerns the target T19, hIGF-1R-Fc mutant SD017 (I650S) (human, UniProt P08069 31-933).
T19 construct: not shown: C-terminal human IgG1-Fc tag
Put plainly: SPR, M13-C06 Fab over captured mutant. As for the experimental part: as §1

Assay [20] has as its target T20, hIGF-1R-Fc mutant SD018 (E665A) (human, UniProt P08069 31-933).
T20 construct: not shown: C-terminal human IgG1-Fc tag
The assay is described as follows: SPR, M13-C06 Fab over captured mutant. As for the experimental part:
as §1

A further assay deals with T21, human IGF-1R(1-903)-Fc (human, UniProt P08069 31-933).
T21 construct: Made by Biogen Idec; Multimerises through IGF-1R and Fc; also called hIGF-1R-Fc; IGF-1R-Fc; not shown: C-terminal human IgG1-Fc tag
The assay is described as follows: SPR, Fab over hIGF-1R-Fc captured by anti-Fc, 1:1 model, apparent affinity. As for the experimental part:
Experiments were performed on a Biacore 3000 set to 25° C. using HBS-EP (Biacore, Cat. No. BR-1001-88) as the running buffer. An anti-human IgG-Fc antibody (2C11 from Biogenesis, Cat. No. 5218-9850) was immobilized to saturation on a Biacore CM5 chip (Cat. No. BR-1000-14) surface by injection at 500 nM in HBS-EP buffer. mIGF-1R-Fc or hIGF-1R-Fc was captured on the chip surface by injecting 40 μL of 20 nM receptor at 3 μL/min. […] Dissociation of Fab was measured for ˜27 minutes. Fab was serially diluted from 25 to 0.4 nM to obtain concentration dependent kinetic binding curves. Regeneration of the surface chip between each injection series was performed using 3×10 μL injections of 100 mM glycine pH 2.0 at 60 μL/min. Each curve was double referenced using (1) data obtained from a CM5 chip surface devoid of the anti-IgG antibody 2C11 and (2) data from a primary injection of receptor followed by a secondary injection of HBS-EP buffer.

Assay [21] addresses T22, hIGF-1R-Fc mutant SD015 (H464E) (human, UniProt P08069 31-933).
T22 construct: not shown: C-terminal human IgG1-Fc tag
The assay is described as follows: SPR (Biacore): M13-C06 injected over SD015 captured on an immobilised M13-C06 surface. How it is done: as §1

Assay [22] has as its target T23, IGF-1R (soluble, construct not stated) (human, UniProt P08069 31-932, limits assumed).
T23 construct: whole entry named; also called Solube IGF-1R Protein; soluble recombinant human IGF-1R
Put plainly: Fab affinity for IGF-1R, method not given; Fab, not IgG; method and IGF-1R construct not stated.

B1: M13-C06 Fab (Fab, V domains shown)
VH: EVQLLESGGGLVQPGGSLRLSCAASGFTFSIYRMQWVRQAPGKGLEWVSGISPSGGTTWYADSVKGRFTISRDNSKNTLYLQMNSLRAEDTAVYYCARWSGGSGYAFDIWGQGTMVTVSS
VL: DIQMTQSPLSLSASVGDRVTITCQASRDIRNYLNWYQQKPGKAPKLLIYDASSLQTGVPSRFGGSGSGTDFSFTIGSLQPEDIATYYCQQFDSLPHTFGQGTKLEIK
notes: Human Fab from a phage library, kappa light chain
As to B1, the binding result in assay [1], in [2], in [3], in assay [4], in assay [5] and in assay [6] was “no binding (tested: 10 nM)” in each case. For the same molecule, in assay [21], the binding result is on record as “no binding (tested: 10 nM)”. For the same molecule, the “Biacore Relative RUmax” value in assay [7] was 0.6; in [8], 1.2; in assay [9], 1; in assay [10], 0.8; in [11] it was 0.9; in assay [12] it was 1.7. The “Biacore Relative RUmax” value in assay [13] stood at 1.3; in assay [14] it was 0.8; in assay [15], 1.8; in assay [16], 0.3; in assay [17], 0.7; in assay [18], 0.6. Further, the “Biacore Relative RUmax” value in [19] was determined as 2; in assay [20] it was 1.7. Further, the results for the Kd (with human IGF-1R(1-903)-Fc; in [22]) were 0.978 nM and 1.3 nM, respectively.
